Substrate in this data set: Nc1ncnc2c1ncn2[C@@H]1O[C@H](COP(=O)(O)OP(=O)(O)OP(=O)(O)O)[C@@H](O)[C@H]1O
Nature of the data set: purified protein, by the assay type.

B1: ALK (V1058-P1620) G1202R (Homo sapiens; G1202R) (protein)
chain: VYRRKHQELQAMQMELQSPEYKLSKLRTSTIMTDYNPNYCFAGKTSSISDLKEVPRKNITLIRGLGHGAFGEVYEGQVSGMPNDPSPLQVAVKTLPEVCSEQDELDFLMEALIISKFNHQNIVRCIGVSLQSLPRFILLELMAGRDLKSFLRETRPRPSQPSSLAMLDLLHVARDIACGCQYLEENHFIHRDIAARNCLLTCPGPGRVAKIGDFGMARDIYRASYYRKGGCAMLPVKWMPPEAFMEGIFTSKTDTWSFGVLLWEIFSLGYMPYPSKSNQEVLEFVTSGGRMDPPKNCPGPVYRIMTQCWQHQPEDRPNFAIILERIEYCTQDPDVINTALPIEYGPLVEEEEKVPVRPKDPEGVPPLLVSQQAKREEERSPAAPPPLPTTSSGKAAKKPTAAEISVRVPRGPAVEGGHVNMAFSQSNPPSELHKVHGSRNKPTSLWNPTYGSWFTEKPTKKNNPIAKKEPHDRGNLGLEGSCTVPPNVATGRLPGASLLLEPSSLTANMKEVPLFRLRHFPCGNVNYGYQQQGLPLEAATAPGAGHYEDTILKSKNSMNQPGP
In the case of B1, for the setting “other: ALK G1202R”, the Km (as a rule, the substrate concentration at which the rate is half of its maximum) came to 23 µM.

B2: ALK (V1058-P1620) S1206Y (Homo sapiens; S1206Y) (protein)
chain: VYRRKHQELQAMQMELQSPEYKLSKLRTSTIMTDYNPNYCFAGKTSSISDLKEVPRKNITLIRGLGHGAFGEVYEGQVSGMPNDPSPLQVAVKTLPEVCSEQDELDFLMEALIISKFNHQNIVRCIGVSLQSLPRFILLELMAGGDLKYFLRETRPRPSQPSSLAMLDLLHVARDIACGCQYLEENHFIHRDIAARNCLLTCPGPGRVAKIGDFGMARDIYRASYYRKGGCAMLPVKWMPPEAFMEGIFTSKTDTWSFGVLLWEIFSLGYMPYPSKSNQEVLEFVTSGGRMDPPKNCPGPVYRIMTQCWQHQPEDRPNFAIILERIEYCTQDPDVINTALPIEYGPLVEEEEKVPVRPKDPEGVPPLLVSQQAKREEERSPAAPPPLPTTSSGKAAKKPTAAEISVRVPRGPAVEGGHVNMAFSQSNPPSELHKVHGSRNKPTSLWNPTYGSWFTEKPTKKNNPIAKKEPHDRGNLGLEGSCTVPPNVATGRLPGASLLLEPSSLTANMKEVPLFRLRHFPCGNVNYGYQQQGLPLEAATAPGAGHYEDTILKSKNSMNQPGP
Regarding B2, the Michaelis-Menten constant (Km) (other: ALK S1206Y) came to 20 µM.
